# Where a chain is given by its changes, count along the chain named.
# B1: PD-L1/SIRPa-HN1 (bispecific antibody, human IgG4 S228P, kappa)
# heavy: not shown
# light: EIVLTQSPGTLSLSPGERATLSCRASSSVSSSYLYWYQQKPGQAPRLLIYSTSNLASGIPDRFSGSGSGTDYTLTISRLEPEDAAVYFCHQWYSYPRTFGGGTKVEIKRTVAAPSVFIFPPSDEQLKSGTASVVCLLNNFYPREAKVQWKVDNALQSGNSQESVTEQDSKDSTYSLSSTLTLSKADYEKHKVYACEVTHQGLSSPVTKSFNRGEC
# notes: Format II: sdAb at the N-terminus of the heavy chain (248G3F6); also called PD-L1/SIRPα-HN1
# B2: AS06778 sdAb (VHH)
# VHH: QVQLVESGGGLVQAGGSLKLSCAASGRTFITYAMGWFRQAPGKERELVAAISWSGSSTYSADSVKGRFTISRDNAKNTVYLQMNSLKPEDTAVYYCAAEVSARTGEHLPKLMGDYWGQGTQVTVSS
# notes: His6-tagged llama sdAb
# B3: AS11947 sdAb (VHH)
# VHH: DVQLVESGGGLVQAGDSLRLTCSASGRTFISYAVGWFRQAPGTEREFVAGIRWNGISTDYTDSVKGRFTISRDNAKNTVYLQMNSLKPEDTAIYYCAAHRTIATIPNKYEYDHWGQGTQVTVSS
# notes: His6-tagged llama sdAb
# B4: AS11948 sdAb (VHH)
# VHH: EVQLVESGGGLVQAGDSLRLSCVASGRTFVTYGMGWFRQAPGKEREFVAAINWSGSMTSYGDSVKGRFAISRDNAKNTVYLQMNSLKPEDTAVYYCAAALGAVVYTTREPYTYWGRGTQVTVSS
# notes: His6-tagged llama sdAb
# B5: AS06750 sdAb (VHH)
# VHH: AVQLVESGGGLVQAGDSLRLSCTASGRTFLTYAVGWFRQAPGTEREFVAGIRWSGGYTDYADSVKGRFTISRDNAKNTVYLQMNSLKPEDTAVYYCAAHRTIATIPEKYEYEYWGQGTQVTVSS
# notes: His6-tagged llama sdAb
# B6: AS06618 sdAb (VHH)
# VHH: B5 VHH with A1E, G10R, Q13R, T23A, T31S, D62E, S63A
# notes: His6-tagged llama sdAb
# B7: AS12003 sdAb (VHH)
# VHH: B5 VHH with A1E, T23A, T31S, Y57S, I105V, E107N, E112D, Y113T
# notes: His6-tagged llama sdAb
# B8: AS06617 sdAb (VHH)
# VHH: DVQLVESGGGLVQAGDSLRLSCAASGRTFISYAVGWFRQAPGSEREFVAGIRWNGIHTDYADSVKGRFTISRDNAKNTVTLEMTSLKPEDTAVYYCAAHRTIATIPEKYEYEYWGQGTQVTVSS
# notes: His6-tagged llama sdAb
# B9: AS06682 sdAb (VHH)
# VHH: B5 VHH with T31S, G56E, Y57H, D62A, R100T, E107K
# notes: His6-tagged llama sdAb
# B10: AS06775 sdAb (VHH)
# VHH: B5 VHH with A1Q, T23A, Y32L, G56S, Y57G, R100T, Q116R
# notes: His6-tagged llama sdAb
# B11: AS06686 sdAb (VHH)
# VHH: AVQLVESGGGLVQAGDSLRLACAASGRTFLTYALGWFRQAPGKEREFVAGVSWSGSSTKYADSVKGRFTISRDNAKNTVYMQMNSLKPEDTAVYYCAAQISAIVPISAHEYQYWGQGTQVTVSS
# notes: His6-tagged llama sdAb
# B12: AS06628 sdAb (VHH)
# VHH: QVQLVESGGGLVQAGGSLRLSCAASGRTFITYAIGWFRQAPGKEREFVTAINWSGSMTSYADSVKGRFTISRDNNKNMVYLQMNSLKPEDTAVYYCAAHRGAIAPMTQSVYDYWGQGTQVTVSS
# notes: His6-tagged llama sdAb
# B13: AS06791 sdAb (VHH)
# VHH: B12 VHH with N75A, M78T, M83I, S85G, P88S
# notes: His6-tagged llama sdAb
# B14: AS06730 sdAb (VHH)
# VHH: B12 VHH with T49S, N75A, M78T, S85G, M106I, T107A, D112T, Y113N
# notes: His6-tagged llama sdAb
# B15: AS06703 sdAb (VHH)
# VHH: B12 VHH with Q1E, Q13R, M78T, V93L, R100L, T107S
# notes: His6-tagged llama sdAb
# B16: PD-L1/SIRPa-HC2 (bispecific antibody, human IgG4 S228P, kappa)
# heavy: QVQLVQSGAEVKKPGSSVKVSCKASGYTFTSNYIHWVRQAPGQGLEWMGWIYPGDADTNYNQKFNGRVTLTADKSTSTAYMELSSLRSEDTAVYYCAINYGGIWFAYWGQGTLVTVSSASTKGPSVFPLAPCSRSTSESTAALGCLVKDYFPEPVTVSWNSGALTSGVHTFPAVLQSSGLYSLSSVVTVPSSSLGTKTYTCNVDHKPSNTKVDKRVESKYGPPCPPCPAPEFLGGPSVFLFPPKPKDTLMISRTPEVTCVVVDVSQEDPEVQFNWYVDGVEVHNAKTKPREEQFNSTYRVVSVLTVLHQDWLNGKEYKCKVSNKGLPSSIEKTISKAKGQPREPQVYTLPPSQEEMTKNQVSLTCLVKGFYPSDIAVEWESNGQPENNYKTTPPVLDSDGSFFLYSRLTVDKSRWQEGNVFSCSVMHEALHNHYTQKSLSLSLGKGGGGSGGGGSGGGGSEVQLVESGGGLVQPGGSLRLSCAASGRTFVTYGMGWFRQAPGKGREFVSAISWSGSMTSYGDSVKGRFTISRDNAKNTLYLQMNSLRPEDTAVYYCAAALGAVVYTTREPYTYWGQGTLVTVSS
# light: DIQMTQSPSSLSASVGDRVTITCQASQDIGNKLIWYQQKPGKAPKLLIYYVTNLPGGVPSRFSGSGSGTDFTLTISSLQPEDFATYYCLQYKQNPLTFGQGTKLEIKRTVAAPSVFIFPPSDEQLKSGTASVVCLLNNFYPREAKVQWKVDNALQSGNSQESVTEQDSKDSTYSLSSTLTLSKADYEKHKVYACEVTHQGLSSPVTKSFNRGEC
# B17: PD-L1/SIRPa-LN1 (bispecific antibody, human IgG4 S228P, kappa)
# heavy: not shown
# light: EVQLVESGGGLVQPGGSLRLSCAASGRTFVTYGMGWFRQAPGKGREFVSAISWSGSMTSYGDSVKGRFTISRDNAKNTLYLQMNSLRPEDTAVYYCAAALGAVVYTTREPYTYWGQGTLVTVSSGGGGSGGGGSGGGGSEIVLTQSPGTLSLSPGERATLSCRASSSVSSSYLYWYQQKPGQAPRLLIYSTSNLASGIPDRFSGSGSGTDYTLTISRLEPEDAAVYFCHQWYSYPRTFGGGTKVEIKRTVAAPSVFIFPPSDEQLKSGTASVVCLLNNFYPREAKVQWKVDNALQSGNSQESVTEQDSKDSTYSLSSTLTLSKADYEKHKVYACEVTHQGLSSPVTKSFNRGEC
# B18: PD-L1/SIRPa-LC1 (bispecific antibody, human IgG4 S228P, kappa)
# heavy: not shown
# light: EIVLTQSPGTLSLSPGERATLSCRASSSVSSSYLYWYQQKPGQAPRLLIYSTSNLASGIPDRFSGSGSGTDYTLTISRLEPEDAAVYFCHQWYSYPRTFGGGTKVEIKRTVAAPSVFIFPPSDEQLKSGTASVVCLLNNFYPREAKVQWKVDNALQSGNSQESVTEQDSKDSTYSLSSTLTLSKADYEKHKVYACEVTHQGLSSPVTKSFNRGECGGGGSGGGGSGGGGSEVQLVESGGGLVQPGGSLRLSCAASGRTFVTYGMGWFRQAPGKGREFVSAISWSGSMTSYGDSVKGRFTISRDNAKNTLYLQMNSLRPEDTAVYYCAAALGAVVYTTREPYTYWGQGTLVTVSS
# B19: HSP210-02-hz52 (antibody, V domains shown)
# VH: QVQLVQSGAEVKKPGASVKVSCKASGFNFEDTYMHWVRQAPGQGLEWMGRIDPADADTKYNPKFQDRVTITVDTSTNTAYMELSSLRSEDTAVYYCVRGNYVNWGQGTTVTVSS
# VL: EIVLTQSPGTLSLSPGERATLSCRASSSVSSSYLYWYQQKPGQAPRLLIYSTSNLASGIPDRFSGSGSGTDYTLTISRLEPEDAAVYFCHQWYSYPRTFGGGTKVEIK
# notes: humanized 248G3F6, VH v5 + VL v2; also called SIRPa IgG#1 02-hz52
# B20: HSP210-03-hz51 (antibody, V domains shown)
# VH: QVQLVQSGAEVKKPGSSVKVSCKASGYTFTSNYIHWVRQAPGQGLEWMGWIYPGDADTNYNQKFNGRVTLTADKSTSTAYMELSSLRSEDTAVYYCAINYGGIWFAYWGQGTLVTVSS
# VL: DIQMTQSPSSLSASVGDRVTITCQASQDIGNKLIWYQQKPGKAPKLLIYYVTNLPGGVPSRFSGSGSGTDFTLTISSLQPEDFATYYCLQYKQNPLTFGQGTKLEIK
# notes: humanized 300A6A6, VH v5 + VL v1; also called SIRPa IgG#2 03-hz51
# Molecular target: T1, PD-L1 expressed on cells (UniProt Q9NZQ7 19-290, limits assumed)
# T1 construct: whole, on cells
# Test: FACS binding test on PD-L1 cell line, Geom.Mean; unit from the axis log(nm)
# T1 sequence (Q9NZQ7 19-290 limits assumed): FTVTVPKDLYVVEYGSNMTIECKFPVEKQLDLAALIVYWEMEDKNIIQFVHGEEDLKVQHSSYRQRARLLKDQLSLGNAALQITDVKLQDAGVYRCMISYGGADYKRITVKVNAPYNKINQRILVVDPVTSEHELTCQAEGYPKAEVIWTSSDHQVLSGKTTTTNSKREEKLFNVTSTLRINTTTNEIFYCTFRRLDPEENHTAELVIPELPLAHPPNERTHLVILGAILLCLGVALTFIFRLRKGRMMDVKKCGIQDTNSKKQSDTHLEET
row,Binder,EC50 [nM]
1,B1,0.311

# Molecular target: T2, recombinant human PD-L1 His protein (human, UniProt Q9NZQ7 19-239)
# T2 construct: not shown: His tag
# Test: SPR Biacore T200, PD-L1 His on chip, sdAb analyte
# Method: Affinity constant (Kd) of each sdAb and HCAb was determined by surface plasmon resonance (SPR) on a BIAcore T200 instrument. Briefly, PD-L1 His was amine-coupled to a CMS sensor chip at a density of no higher than 100 RU. […] Flow rate was 30 μl/min in all experiments. Association and dissociation phases were 5 and 10 min, respectively. The chip was regenerated using Glycine/HCl pH 1.5. Binding curves at different concentrations of sdAbs and HCAbs were used to calculate the kinetic parameters kₒₙ, koff and KD.
# T2 sequence (Q9NZQ7 19-239 limits assumed): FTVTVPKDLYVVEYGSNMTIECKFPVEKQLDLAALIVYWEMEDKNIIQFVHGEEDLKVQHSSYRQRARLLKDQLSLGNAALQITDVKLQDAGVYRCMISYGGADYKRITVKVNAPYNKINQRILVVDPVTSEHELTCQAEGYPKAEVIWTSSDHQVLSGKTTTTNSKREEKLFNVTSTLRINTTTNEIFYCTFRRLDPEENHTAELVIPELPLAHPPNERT
Binder,Kd [nM],koff [s⁻¹],kon [M⁻¹ s⁻¹]
B2,0.0233,4.42e-05,1.9e+06
B3,0.617,0.00118,1.92e+06
B4,0.167,0.000394,2.37e+06
B5,0.109,0.000223,2.05e+06
B6,0.17,0.000245,1.44e+06
B7,0.56,0.00155,2.76e+06
B8,0.249,0.000464,1.86e+06
B9,0.203,0.000342,1.68e+06
B10,0.156,0.000247,1.58e+06
B11,0.346,0.000965,2.79e+06
B12,0.0526,0.000215,4.1e+06
B13,0.153,0.000239,1.56e+06
B14,0.0195,0.000139,7.11e+06
B15,0.0387,6.96e-05,1.8e+06

# Molecular target: PD-L1 (blocking assay of Example 11) (UniProt Q9NZQ7 19-239, limits assumed)
# Test: cell-based or functional assay
# Sequence of PD-L1 (blocking assay of Example 11) (Q9NZQ7 19-239 limits assumed): as above
row,Binder,"EC50, luminescence (RLU) in the PD-1/PD-L1 Blockade Assay [nM]"
1,B16,1.28
2,B17,1.13
3,B18,1.36

# Molecular target: human PD-L1 on CHO-K1 cells (human, UniProt Q9NZQ7 19-290)
# Test: cell-based or functional assay
# Sequence of human PD-L1 on CHO-K1 cells (Q9NZQ7 19-290): as the sequence (Q9NZQ7 19-290 limits assumed) above
row,Binder,EC50 of PD-L1-based blockade assay (luciferase reporter) [nM]
1,B2,20.1
2,B3,77.2
3,B4,25.2
4,B5,33.6
5,B6,44.5
6,B7,96.2
7,B8,63.8
8,B9,42
9,B10,75.5
10,B11,352
11,B12,24.2
12,B13,36.5
13,B14,17.2
14,B15,15

# Molecular target: T3, recombinant human SIRPα variant 2 protein (human, UniProt P78324 31-370, limits assumed)
# T3 construct: polymorphic variant 2; also called SIRPα v2; hSIRPαV2
# Test: SPR Biacore 8K, antibody captured, antigen analyte
# Method: The binding kinetics assay of antibody to antigen was performed using Biacore 8K system through human antibody capture approach. The […] Fc lgG were immobilized on CM5 sensor chip according to the manufactory's instruction. The test antibody was injected and captured by the immobilized anti-human Fc lgG. […] The assay system was regenerated by injection of 10 mM Glycine-HCl pH 1.5 for 30 seconds. The running buffer was HBS-EP+ (10 mM HEPES, pH 7.4, 150 mM NaCl, 3 mM EDTA and 0.05% P20). The assay temperature was 25° C., and the association and dissociation time were 180 and 600 seconds, respectively.
# T3 sequence (P78324 other isoform, or with tags, fused parts or gaps mutant limits assumed): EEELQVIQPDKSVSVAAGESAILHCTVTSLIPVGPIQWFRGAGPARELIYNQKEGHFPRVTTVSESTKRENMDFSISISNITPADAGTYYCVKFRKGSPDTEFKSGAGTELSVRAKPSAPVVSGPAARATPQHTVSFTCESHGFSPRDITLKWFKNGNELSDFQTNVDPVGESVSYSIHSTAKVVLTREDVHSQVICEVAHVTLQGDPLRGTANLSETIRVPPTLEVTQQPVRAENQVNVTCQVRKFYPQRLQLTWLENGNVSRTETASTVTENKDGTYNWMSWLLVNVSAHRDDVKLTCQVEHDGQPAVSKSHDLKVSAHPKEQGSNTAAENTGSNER
Binder,Kd [nM],koff [s⁻¹],kon [M⁻¹ s⁻¹]
B19,7.4,0.00247,333000
B20,3.03,0.001,331000

# Source: US20240101716A1 (LA NOVA MEDICINES DEVELOPMENT, published 2024)
